T1: human PTH1R overexpressed on CHO cells (human, UniProt Q03431 27-593)
T1 sequence (looked up): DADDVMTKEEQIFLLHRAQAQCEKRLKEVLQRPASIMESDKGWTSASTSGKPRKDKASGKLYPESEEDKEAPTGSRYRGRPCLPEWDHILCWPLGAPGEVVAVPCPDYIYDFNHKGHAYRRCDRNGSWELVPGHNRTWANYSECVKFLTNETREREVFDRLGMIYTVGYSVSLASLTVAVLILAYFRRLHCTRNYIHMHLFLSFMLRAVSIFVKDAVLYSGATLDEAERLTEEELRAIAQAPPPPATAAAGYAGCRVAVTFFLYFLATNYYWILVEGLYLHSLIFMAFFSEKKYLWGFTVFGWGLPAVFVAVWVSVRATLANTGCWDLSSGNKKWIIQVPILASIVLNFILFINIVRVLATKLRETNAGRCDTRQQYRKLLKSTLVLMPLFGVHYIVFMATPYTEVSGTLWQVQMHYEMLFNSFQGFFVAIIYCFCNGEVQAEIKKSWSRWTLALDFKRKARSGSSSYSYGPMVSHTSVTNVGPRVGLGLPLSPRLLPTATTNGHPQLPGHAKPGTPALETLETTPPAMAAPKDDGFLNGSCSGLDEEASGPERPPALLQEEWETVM

T2: mouse PTH1R overexpressed on CHO cells (mouse, UniProt P41593 27-591)
T2 sequence (looked up): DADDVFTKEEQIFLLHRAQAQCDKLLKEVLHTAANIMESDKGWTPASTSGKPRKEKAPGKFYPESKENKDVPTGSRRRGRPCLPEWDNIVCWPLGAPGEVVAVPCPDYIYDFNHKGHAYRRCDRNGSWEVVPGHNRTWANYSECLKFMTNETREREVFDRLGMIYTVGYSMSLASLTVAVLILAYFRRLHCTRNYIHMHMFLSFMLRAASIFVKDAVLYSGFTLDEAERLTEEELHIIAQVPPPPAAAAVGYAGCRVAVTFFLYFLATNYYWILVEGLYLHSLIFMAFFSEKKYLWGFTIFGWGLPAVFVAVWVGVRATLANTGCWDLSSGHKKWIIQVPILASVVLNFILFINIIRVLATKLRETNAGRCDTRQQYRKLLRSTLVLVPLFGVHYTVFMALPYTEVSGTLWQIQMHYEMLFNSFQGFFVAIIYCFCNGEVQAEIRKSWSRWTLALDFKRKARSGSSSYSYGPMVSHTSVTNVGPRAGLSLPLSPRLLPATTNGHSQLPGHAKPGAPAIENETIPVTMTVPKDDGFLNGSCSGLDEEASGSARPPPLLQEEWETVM

T3: rat PTH1R on UMR106 cells (rat, UniProt P25961 27-591)
T3 sequence (looked up): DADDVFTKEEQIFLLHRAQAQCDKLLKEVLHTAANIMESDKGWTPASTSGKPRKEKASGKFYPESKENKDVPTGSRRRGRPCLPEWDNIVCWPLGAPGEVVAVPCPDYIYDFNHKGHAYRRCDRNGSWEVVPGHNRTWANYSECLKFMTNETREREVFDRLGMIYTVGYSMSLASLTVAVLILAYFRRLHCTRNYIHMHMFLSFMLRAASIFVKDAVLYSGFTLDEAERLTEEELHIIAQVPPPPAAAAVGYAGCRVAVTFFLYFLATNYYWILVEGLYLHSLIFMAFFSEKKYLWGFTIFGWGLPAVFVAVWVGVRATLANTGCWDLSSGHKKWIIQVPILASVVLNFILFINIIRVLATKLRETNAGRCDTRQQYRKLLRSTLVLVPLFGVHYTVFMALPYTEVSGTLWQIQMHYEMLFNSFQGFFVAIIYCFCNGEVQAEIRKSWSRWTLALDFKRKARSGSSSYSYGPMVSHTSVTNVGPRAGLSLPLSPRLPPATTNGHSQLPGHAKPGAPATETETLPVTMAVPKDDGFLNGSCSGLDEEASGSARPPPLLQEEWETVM

T4: human PTH1R on Saos-2 cells (endogenous) (human, UniProt Q03431 27-593)
T4 sequence (looked up): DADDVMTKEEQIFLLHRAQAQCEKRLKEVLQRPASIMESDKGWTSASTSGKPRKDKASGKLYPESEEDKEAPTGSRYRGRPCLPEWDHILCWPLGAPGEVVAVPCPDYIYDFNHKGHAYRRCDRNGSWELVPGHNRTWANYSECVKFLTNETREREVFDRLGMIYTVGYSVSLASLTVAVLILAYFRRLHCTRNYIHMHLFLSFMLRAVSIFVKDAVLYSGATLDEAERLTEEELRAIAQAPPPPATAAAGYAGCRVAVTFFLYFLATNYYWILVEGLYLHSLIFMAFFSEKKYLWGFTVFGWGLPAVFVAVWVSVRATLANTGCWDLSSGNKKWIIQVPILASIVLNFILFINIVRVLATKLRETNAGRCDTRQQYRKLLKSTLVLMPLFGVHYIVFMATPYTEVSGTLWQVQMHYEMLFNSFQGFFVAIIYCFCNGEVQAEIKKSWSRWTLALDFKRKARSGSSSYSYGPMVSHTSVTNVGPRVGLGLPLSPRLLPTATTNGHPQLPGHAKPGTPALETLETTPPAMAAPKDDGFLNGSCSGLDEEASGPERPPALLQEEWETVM

T5: recombinant N-terminal extracellular domain of the human PTH1R receptor (human, UniProt Q03431 27-188, limits assumed)
T5 construct: domain: N-terminal extracellular domain; Bought reagent; also called N-ECD PTH1R; PTH1R N-terminal ECD
T5 sequence (looked up): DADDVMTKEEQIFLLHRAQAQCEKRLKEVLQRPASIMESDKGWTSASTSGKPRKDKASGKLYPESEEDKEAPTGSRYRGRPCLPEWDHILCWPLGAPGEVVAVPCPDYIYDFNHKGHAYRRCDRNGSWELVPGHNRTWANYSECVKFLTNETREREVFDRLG


Legend:
[1] = molecular target: T1, human PTH1R overexpressed on CHO cells; assay: cell-based or functional assay
[2] = molecular target: T2, mouse PTH1R overexpressed on CHO cells; assay: cell-based or functional assay
[3] = molecular target: T3, rat PTH1R on UMR106 cells; assay: cell-based or functional assay
[4] = molecular target: T4, human PTH1R on Saos-2 cells (endogenous); assay: cell-based or functional assay
[5] = molecular target: T5, recombinant N-terminal extracellular …; assay: SPR, IgG captured, ECD injected
Procedure: An anti-human IgG-Fc CMS sensor chip (GE Healthcare) was prepared using standard amine coupling as described by the manufacturer's protocol for the capture Ab on a BIACORE 4000 system (GE Healthcare). Briefly, the chip surface was activated with a 10 minute injection at 10 μL/minute of a freshly mixed 1:1 solution of 0.1 M N-Hydroxysuccinimide (NHS) and 0.4 M 1-Ethyl-3-(3-dimethylaminopropyl) carbodiimide hydrochloride (EDC). Following the activation injection, 15 ug/mL anti-human IgG-Fc antibody in acetate pH 4.5 was injected at 10 μL/minute for 10 minutes to achieve a high density capture surface. 7 minutes of 1M Ethanolamine hydrochloride-NaOH pH 8.5 was injected to block the surface. The NHS, EDC, and Ethanolamine used were from the BIACORE Amine Coupling Kit.
Kinetic Analysis was performed using HBS-EP+(Teknova) with 2.5 mg/mL BSA (Sigma Aldrich, St. Louis Mo.). Antibodies were diluted to 0.5 μg/mL and captured to achieve a surface density of 100 to 200 RU. […] Injections were performed at 30 μL/minute for 240 seconds with a 360 second dissociation time. Regeneration was then performed with one 60 second injection 3M MgCl.
The data were analyzed using BIACORE 4000 Evaluation Software and was double referenced by subtracting both the blank flow cell data and the averaged bracketing blank injections. The data was fit by simultaneously fitting the an off-rate (kd) and on-rate (kₐ), and calculating the KD as KD=kd/kₐ.

[6] = molecular target: T1, human PTH1R overexpressed on CHO cells; assay: flow cytometry on CHO cells, 24 hr at 4 C
Procedure: (§1) To characterize antibody binding to PTH1R, cells were labeled with either CellTrace™ CFSE or CellTrace™ Violet. Unlabeled CHOK1 parent, CHO human PTH1R labeled with CellTrace™CFSE, and CHO mouse PTH1R labeled with CellTrace™Violet were pooled together and stained with increasing concentrations of antibody. Antibodies were incubated for 24 hr at 4° C. followed by two washes with FACS Buffer (0.5% BSA, 0.1% NaN3 in DPBS). Cells were then incubated with Allophycocyanin (APC) AffiniPure F(ab′)₂ Fragment Goat Anti-Human IgG (H+L) (Jackson ImmunoResearch, West Grove, Pa.) for 20 minutes at 4° C. Followed by two washes, cells were resuspended in FACS Buffer. Samples were acquired using BD Cytometer (BD Biosciences, San Jose, Calif.) and data were analyzed using FlowJo (FlowJo, LLC, Ashland, Oreg.) and Prism (GraphPad Software, La Jolla, Calif.).

[7] = molecular target: T2, mouse PTH1R overexpressed on CHO cells; assay: flow cytometry on CHO cells, 24 hr at 4 C
Procedure: as §1

[8] = molecular target: T4, human PTH1R on Saos-2 cells (endogenous); assay: cell-based or functional assay; remark: listed apart in the source
[9] = molecular target: T3, rat PTH1R on UMR106 cells; assay: cell-based or functional assay; remark: listed apart in the source
[10] = molecular target: T4, human PTH1R on Saos-2 cells (endogenous); assay: cell-based or functional assay; remark: listed apart in the source
[11] = molecular target: T1, human PTH1R overexpressed on CHO cells; assay: cell-based or functional assay; remark: listed apart in the source
[12] = molecular target: T2, mouse PTH1R overexpressed on CHO cells; assay: cell-based or functional assay; remark: listed apart in the source

Binder | EC50 of PTH(1-34), cAMP assay, with 267 nM IgG [1] [nM] | EC50 of PTH(1-34), cAMP assay, with 267 nM IgG [2] [nM] | EC50 of PTH(1-34), cAMP assay, with 267 nM IgG [3] [nM] | EC50 of PTH(1-34), cAMP assay, with 267 nM IgG [4] [nM] | EC50 of PTHrP(1-34), cAMP assay, with 267 nM IgG [4] [nM] | Kd [5] [nM] | koff [5] [s⁻¹] | kon [5] [M⁻¹ s⁻¹] | EC50 [6] [nM] | EC50 [7] [nM] | fold shift of the PTH (1-34) dose response, M-CSF secretion by Saos-2 cells [8] [fold] | % inhibition of cAMP accumulation at 1 µM PTH(1-34), 267 nM IgG [9] [%] | % inhibition of cAMP accumulation at 1 µM PTHrP(1-34), 267 nM IgG [9] [%] | % inhibition of cAMP accumulation at 1 µM PTH(1-34), 267 nM IgG [10] [%] | % inhibition of cAMP accumulation at 1 µM PTHrP(1-34), 267 nM IgG [10] [%] | IC50, inhibition of PTH(1-34)-induced cAMP accumulation [11] [nM] | IC50, inhibition of PTHrP(1-34)-induced cAMP accumulation [11] [nM] | IC50, inhibition of PTHrP(1-34)-induced cAMP accumulation [12] [nM]
XPA.85.340 (antibody, V domains shown, Light-chain-shuffled variant of XPA.85.017) VH: EVQLVETGGGVVRPGGSLRLSCAASGFTFSSSAMSWVRQTPGKELQWVSAITPGGEGTYYADVVKGRFTISRDNSKDTLYLQMDSLRAEDTAVYYCARDLYGSYGDAFDIWGQGTLVTVSS VL: SYVLTQPPSVSVAPGQTASITCSGDNLGEKFVSWYQQKAGQSPVLVIFEDNKRPSGIPERFAGSNSGNRATLTIRGTQAEDEADYYCQAWDSSWVFGGGTQLTVL | 0.404 | 0.614 | 8.1 | 4.17 | 11.8 | 0.75 | 0.0011 | 1.4e+06 | 0.167 | 0.322 | – | – | – | – | – | – | – | –
XPA.85.335 (antibody, V domains shown, Light-chain-shuffled variant of XPA.85.017) VH: EVQLVETGGGVVRPGGSLRLSCAASGFTFSSSAMSWVRQTPGKELQWVSAITPGGEGTYYADVVKGRFTISRDNSKDTLYLQMDSLRAEDTAVYYCARDLYGSYGDAFDIWGQGTLVTVSS VL: QSVLTQPPSVSAAPGQRVTISCSGNTSNIGNNFVSWYQQLPGTAPKLLIYDDNKRPSGIPDRFSGSKSGTSATLGISGLQTGDEADYYCGTWDNSLNPPWVFGGGTQLTVL | 0.0429 | 4.54 | – | – | 6.41 | 2.4 | 0.0019 | 800000 | 0.265 | 0.384 | – | – | – | – | – | – | – | –
XPA.85.336 (antibody, V domains shown, Light-chain-shuffled variant of XPA.85.017) VH: EVQLVETGGGVVRPGGSLRLSCAASGFTFSSSAMSWVRQTPGKELQWVSAITPGGEGTYYADVVKGRFTISRDNSKDTLYLQMDSLRAEDTAVYYCARDLYGSYGDAFDIWGQGTLVTVSS VL: QSVLTQPPSVSAAPGQKVTISCSGTGSNIGSNYVAWYQQLPGTAPKLLIYDDNKRPSGTPDRFSGSKSGTSATLVIAGLQTGDEADYYCGTWDNTLNVGGVFGGGTQLTVL | 0.0181 | 0.144 | – | – | 23.6 | 17 | 0.019 | 1.1e+06 | 0.342 | 14.7 | – | – | – | – | – | – | – | –
XPA.85.337 (antibody, V domains shown, Light-chain-shuffled variant of XPA.85.017) VH: EVQLVETGGGVVRPGGSLRLSCAASGFTFSSSAMSWVRQTPGKELQWVSAITPGGEGTYYADVVKGRFTISRDNSKDTLYLQMDSLRAEDTAVYYCARDLYGSYGDAFDIWGQGTLVTVSS VL: SYVLTQPPSVSVAPGQTATITCSGDDFGDKYVSWYQQKPGQSPLLVIFQDNERPSGIPERFSGSNSGNTATLTISGTQAMDEADYYCQAWDSNWVFGGGTKVTVL | 0.107 | 0.219 | 2.88 | – | 27.1 | 0.75 | 0.00046 | 610000 | 1.26 | 3.27 | – | – | – | – | – | – | – | –
XPA.85.331 (antibody, V domains shown, Light-chain-shuffled variant of XPA.85.012) VH: QMQLVQSGAEVKKPGSSVKVSCKASGGTFSSYAISWVRQAPGQGLEWMGGIIPIFGTANYAQKFQGRVTITADESTSTAYMELSSLRSEDTAVYYCARGYVVARLWGQGTLVTVSS VL: DVVMTQSPLSLPVTPGEPASISCRSSQSLLHIDGFNYLQWYLQKPGQSPQLLVHLGSFRASGVPDRFSGSGSGTDFTLEISRVEAEDVGLYYCMQGLQTPPTFGPGTKVEIK | – | – | – | – | – | 0.22 | 0.00035 | 1.6e+06 | – | – | > 10 | 42 | 37 | 67 | 72 | 14.2 | 8.86 | 3.2

From patent US20200317817A1 (XOMA US, published 2020)
